Measured values published in PMC5008402.

Assays:
[1] = phospho-specific blot; settings: glycan lost; control: WT TAB3
[2] = Flag IP, pThr404 TAB3 blot; settings: glycan lost; control: WT TAB3, IL-1β treated

B1: TAK1 binding protein 3 (TAB3): S408A (protein)
parent chain: MAQSSPQLDIQVLHDLRQRFPEIPEGVVSQCMLQNNNNLEACCRALSQESSKYLYMEYHSPDDNRMNRNRLLHINLGIHSPSSYHPGDGAQLNGGRTLVHSSSDGHIDPQHAAGKQLICLVQEPHSAPAVVAATPNYNPFFMNEQNRSAATPPSQPPQQPSSMQTGMNPSAMQGPSPPPPPPSYMHIPRYSTNPITVTVSQNLPSGQTVPRALQILPQIPSNLYGSPGSIYIRQTSQSSSGRQTPQSTPWQSSPQGPVPHYSQRPLPVYPHQQNYQPSQYSPKQQQIPQSAYHSPPPSQCPSPFSSPQHQVQPSQLGHIFMPPSPSTTPPHPYQQGPPSYQKQGSHSVAYLPYTASSLSKGSMKKIEITVEPSQRPGTAINRSPSPISNQPSPRNQHSLYTATTPPSSSPSRGISSQPKPPFSVNPVYITYTQPTGPSCTPSPSPRVIPNPTTVFKITVGRATTENLLNLVDQEERSAAPEPIQPISVIPGSGGEKGSHKYQRSSSSGSDDYAYTQALLLHQRARMERLAKQLKLEKEELERLKSEVNGMEHDLMQRRLRRVSCTTAIPTPEEMTRLRSMNRQLQINVDCTLKEVDLLQSRGNFDPKAMNNFYDNIEPGPVVPPKPSKKDSSDPCTIERKARRISVTSKVQADIHDTQAAAADEHRTGSTQSPRTQPRDEDYEGAPWNCDSCTFLNHPALNRCEQCEMPRYT
For B1, the “other: TAB3 S60 and S506 phosphorylation” value [1] was “no change” and the “other: TAB3 Thr404 phosphorylation” value [2] was “decreases”.
